One assay deals with T1, B7H1_D122E (human, UniProt Q9NZQ7 19-238).
T1 construct: range 19-238; also called B7H1 D122E mutant
In words: HTRF competition: untagged B7-H1 sample against HIS FLAG tagged human B7-H1 for labelled antibody. The method, then: (§1) The HTRF® competition assays measured the binding of anti-B7-H1 antibody to HIS FLAG tagged B7-H1. Titration of non tagged B7-H1 samples, prepared as described above, will compete with HIS FLAG tagged B7-H1 for binding to anti-B7-H1 antibody, leading to a reduction in assay signal. […] 10 μl of B7-H1 sample was added to a 384 well low volume assay plate (Corning 3673). […] Assay plates were incubated for 4 hours at room temperature prior to reading time resolved fluorescence at 620 nm and 665 nm emission wavelengths using an EnVision plate reader (Perkin Elmer).
(In general: In TR-FRET formats the signal depends on donor and acceptor labels being close together.)

Another assay concerns the target T2, B7H1_T20V (human, UniProt Q9NZQ7 19-238).
T2 construct: range 19-238; also called human B7-H1 extracellular domain mutant T20V
The assay is described as above. The method, then: as §1

In the next assay the target is T3, B7H1_D122N (human, UniProt Q9NZQ7 19-238).
T3 construct: range 19-238; also called human B7-H1 extracellular domain mutant D122N
T3 sequence (Q9NZQ7 19-238 D122N limits assumed): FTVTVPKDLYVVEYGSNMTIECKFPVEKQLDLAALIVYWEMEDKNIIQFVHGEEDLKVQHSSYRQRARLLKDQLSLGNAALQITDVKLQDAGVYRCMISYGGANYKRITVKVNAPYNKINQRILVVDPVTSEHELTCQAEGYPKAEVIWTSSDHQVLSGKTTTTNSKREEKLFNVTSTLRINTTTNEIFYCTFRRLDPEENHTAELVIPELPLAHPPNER
The description is as above. The method, then:
as §1

For a further assay, the target named is T4, B7H1_R113L (human, UniProt Q9NZQ7 19-238).
T4 construct: range 19-238; also called human B7-H1 extracellular domain mutant R113L
T4 sequence (Q9NZQ7 19-238 R113L limits assumed): as the sequence (Q9NZQ7 19-238 D122N limits assumed) above, with R95L, N104D counted along it
The description is as above. The method, then: as §1

Assay [1] concerns the target T5, extracellular domain of human B7-H2 (R&D Systems, 165-B7) (human, UniProt O75144 19-256).
T5 construct: extracellular domain; Bought
T5 sequence (looked up): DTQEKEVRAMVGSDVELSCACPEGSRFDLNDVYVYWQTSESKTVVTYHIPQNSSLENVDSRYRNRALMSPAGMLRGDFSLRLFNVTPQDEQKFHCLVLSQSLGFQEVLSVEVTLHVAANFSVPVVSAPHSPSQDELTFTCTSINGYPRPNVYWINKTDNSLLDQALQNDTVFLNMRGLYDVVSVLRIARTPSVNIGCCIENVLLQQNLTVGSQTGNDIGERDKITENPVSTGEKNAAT
In words: ELISA, biotinylated IgG1-TM on coated ECD. The procedure: (§2) ELISAs were performed to determine the cross-reactivity of the anti-B7-H1 IgG1-TM antibodies for other immune co-modulatory molecules. […] Murine cross reactivity was also investigated by coating the ECD of murine B7-H1 (R&D Systems, 1019-B7). Biotinylated anti-B7-H1 IgG1-TM diluted at 100 nM in PBS containing 3% dried milk powder, were incubated at room temperature for 2 h to allow binding. Bound biotinylated IgGs were detected with europium N1-labelled streptavidin (Perkin Elmer, 1244-360) at 0.2 ug/mL. […] Primary antibodies were incubated at 5 ug/mL in PBS containing 3% dried milk powder for 2 h at room temperature. Detection was carried out by incubating the secondary antibody anti-mouse IgG Peroxidase conjugate (Sigma, A2554) or anti-rat IgG Peroxidase conjugate (Sigma, A5795) diluted 1:5000 in PBS containing 3% dried milk powder for 1 h at room temperature and subsequent addition of TMB (Sigma, T0440). […] Non-specific binding was determined using wells coated with the IgG1 isotype control at 5 ug/mL. Cross reactivities were calculated at a percent of the specific binding to the antigen relative to human B7-H1.
A general note: ELISA stands for enzyme-linked immunosorbent assay.

Assay [2] addresses T6, extracellular domain of human PD-L2 (R&D Systems, 1224-PL) (human, UniProt Q9BQ51 20-220).
T6 construct: extracellular domain; Bought
T6 sequence (looked up): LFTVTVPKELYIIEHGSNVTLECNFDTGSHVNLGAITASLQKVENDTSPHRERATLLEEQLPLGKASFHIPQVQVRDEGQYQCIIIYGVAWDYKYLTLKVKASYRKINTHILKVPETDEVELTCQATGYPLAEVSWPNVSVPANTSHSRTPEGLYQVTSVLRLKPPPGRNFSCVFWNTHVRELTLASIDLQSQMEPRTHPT
In words: ELISA, biotinylated IgG1-TM on coated ECD. The method, then: as §2

The target in assay [3] is T7, human PD-1/Fc protein (R&D Systems, catalog #1086-PD) (human, UniProt Q15116 25-170).
T7 construct: extracellular domain; Bought; not shown: Fc portion
T7 sequence (Q15116 25-170): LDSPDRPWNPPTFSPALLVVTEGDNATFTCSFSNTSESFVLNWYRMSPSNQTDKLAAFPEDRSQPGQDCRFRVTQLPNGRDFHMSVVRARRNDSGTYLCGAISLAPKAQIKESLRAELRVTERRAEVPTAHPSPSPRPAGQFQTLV
In words: ELISA, biotinylated IgG1-TM on coated ECD. The method, then: as §2

For assay [4], the target named is T8, extracellular domain of human CTLA-4 (R&D Systems, 325-CT) (human, UniProt P16410 36-161).
T8 construct: extracellular domain; Bought
T8 sequence (looked up): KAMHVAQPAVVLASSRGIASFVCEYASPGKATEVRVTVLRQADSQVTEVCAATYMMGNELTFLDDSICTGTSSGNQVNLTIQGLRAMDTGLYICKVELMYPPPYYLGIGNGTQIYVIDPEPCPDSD
Put plainly: ELISA, biotinylated IgG1-TM on coated ECD. The procedure:
as §2

The target in assay [5] is T9, extracellular domain of human CD28 (R&D Systems, 342-CD) (human, UniProt P10747 19-152).
T9 construct: extracellular domain; Bought
T9 sequence (P10747 19-152): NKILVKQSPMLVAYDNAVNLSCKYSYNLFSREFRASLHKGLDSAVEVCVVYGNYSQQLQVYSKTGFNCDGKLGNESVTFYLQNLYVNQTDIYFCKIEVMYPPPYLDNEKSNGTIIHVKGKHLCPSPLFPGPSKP
Put plainly: ELISA, biotinylated IgG1-TM on coated ECD. The method, then:
as §2

Assay [6] concerns the target T10, recombinant monomeric cynomologus B7-H1 FlagHis10 extracellular domain (cynomologus).
T10 construct: extracellular domain; also called CYNO B7H1
Put plainly: SPR (BIAcore T100), IgG captured via protein G, monomeric cynomologus B7-H1 ECD as analyte, 25 °C, 1:1 model. The procedure: The binding affinity and kinetic parameters of anti-B7-H1 antibodies in the IgG1-TM format to monomeric human and cynomologus B7-H1 were determined by surface plasmon resonance using a BIAcore T100 instrument (BIAcore, Uppsala, Sweden). In brief, experiments were performed at 25° C. using HBS-EP buffer (10 mM HEPES, 150 mM NaCl, 3 mM EDTA, 0.05% v/v surfactant P20) as running buffer. IgGs were affinity captured on the surface of a CM5 sensor chip (BIAcore) via protein G, which was amine coupled onto the CM5 surface to achieve the density of ˜500 Response Units (RU), according to the manufacturer's instructions (BIAapplications Handbook, BIAcore). Recombinant monomeric human or cynomologus B7-H1 FlagHis₁₀ extracellular domains (ECDs) were used as analytes. […] All measurements were baseline corrected by subtracting the sensorgram obtained with the control (activated-deactivated) flow cell, as well as double referenced with blank (zero analyte concentration) injections. Data were analyzed using the T-100 BIAevaluation software package and fitted to a simple 1:1 Langmuir binding model with local Rₘₐₓ and bulk refractive index set to 0. Data were calculated from at least two independent experiments. Mass transport effects were limited by keeping the level of affinity-captured IgGs below 250 RU.

T1 sequence (Q9NZQ7 19-238 D122E limits assumed): as the sequence (Q9NZQ7 19-238 D122N limits assumed) above, with N104E counted along it
T2 sequence (Q9NZQ7 19-238 T20V limits assumed): as the sequence (Q9NZQ7 19-238 D122N limits assumed) above, with T2V, N104D counted along it

B1: 2.7A4OPT (antibody, V domains shown)
VH: EVQLVESGGGLVKPGGSLRLSCAASGFTFSTYSMNWVRQAPGKGLEWVSSISSSGDYIYYADSVKGRFTISRDNAKNSLYLQMNSLRAEDTAVYYCARDLVTSMVAFDYWGQGTLVTVSS
VL: SYELTQPPSVSVSPGQTARITCSGDALPQKYVFWYQQKSGQAPVLVIYEDSKRPSGIPERFSGSSSGTMATLTISGAQVEDEADYYCYSTDRSGNHRVFGGGTKLTVL
notes: Germlined variable domains; human IgG1-TM (L234F, L235E, P331S), lambda; also called 2.7A4OPT IgG1-TM
One may read the Kd as the free concentration of one partner at which half of the binding sites on the other are occupied at equilibrium, for simple one-to-one binding. One may read the koff as the rate constant with which the complex falls apart. What is called kon is the second-order rate constant of association. Take B1: the binding result is reported as “no binding” in the assay with B7H1_D122E; “no binding” in the assay with B7H1_T20V; “no binding” with B7H1_D122N; “no binding” in the assay with B7H1_R113L; “no binding (tested: 100 nM)” in [1]; “no binding (tested: 100 nM)” in assay [2]. The binding result in assay [3], in assay [4] and in [5] was “no binding (tested: 100 nM)” throughout. Moreover, the Kd in assay [6] was found to be 0.835 nM. Moreover, in assay [6], the koff turned out to be 0.0011 s⁻¹. The kon in assay [6] was 1.31e+06 M⁻¹ s⁻¹.

Source of the values: patent US20130034559A1 (AstraZeneca / MedImmune, published 2013).
